We go through two molecules from patent publication US20080292641A1 (MORPHOTEK, published 2008).

“And” between values parts separate entries of the source, which are not always exact repeats. Equal entries are not always repeated. Where no end group is shown, it is not given here. cellulose membrane = derivatized cellulose membrane (SPOTs) solid support, attached to the peptide C-terminus

Assay [1] concerns the target T1, human granulocyte-macrophage colony stimulating factor (GM-CSF) (human, UniProt P04141 18-144).
T1 construct: The assays used recombinant human GM-CSF (in-house, PeproTech, or PE-labeled from R&D Systems); also called hGM-CSF; human GM-CSF
The assay can be described thus: apparent affinity, method not given.

Assay [2] concerns the target T2, human GM-CSF overlapping 12-mer peptide #23.
T2 construct: Only 'possibly' recognized by G9
T2 peptide: KENLKDFLLVIP-{cellulose membrane}
The assay can be described thus: SPOTs peptide membrane, 1 mg/ml purified 10G9.

In assay [3] the target is T3, HEL (UniProt P00698 19-147). As to the kind of experiment: antigen specific ELISA (subsequent study, data not shown). A general note: In an ELISA, binding on a coated surface is turned into a signal by an enzyme label.
T3 sequence (P00698 19-147): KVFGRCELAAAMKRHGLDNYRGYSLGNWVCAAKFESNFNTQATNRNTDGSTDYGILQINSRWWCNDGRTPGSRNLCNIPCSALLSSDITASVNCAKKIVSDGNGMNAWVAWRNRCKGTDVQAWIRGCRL
The target in assay [4] is T4, human mesothelin (human, UniProt Q13421 296-598, limits assumed).
T4 construct: also called human Mesothilin
T4 sequence (Q13421 other isoform, or with tags, fused parts or gaps limits assumed): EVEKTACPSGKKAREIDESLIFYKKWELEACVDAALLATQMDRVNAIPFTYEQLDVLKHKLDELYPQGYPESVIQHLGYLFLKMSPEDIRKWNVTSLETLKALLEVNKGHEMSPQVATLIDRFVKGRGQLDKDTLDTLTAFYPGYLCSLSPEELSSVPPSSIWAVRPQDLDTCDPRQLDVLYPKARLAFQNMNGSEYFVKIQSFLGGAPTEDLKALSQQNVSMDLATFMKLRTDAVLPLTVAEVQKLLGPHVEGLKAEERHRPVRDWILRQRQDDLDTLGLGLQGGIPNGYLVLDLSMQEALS
The assay is described as above.

Assay [5] addresses T5, SEB (UniProt P01552 28-266).
T5 sequence: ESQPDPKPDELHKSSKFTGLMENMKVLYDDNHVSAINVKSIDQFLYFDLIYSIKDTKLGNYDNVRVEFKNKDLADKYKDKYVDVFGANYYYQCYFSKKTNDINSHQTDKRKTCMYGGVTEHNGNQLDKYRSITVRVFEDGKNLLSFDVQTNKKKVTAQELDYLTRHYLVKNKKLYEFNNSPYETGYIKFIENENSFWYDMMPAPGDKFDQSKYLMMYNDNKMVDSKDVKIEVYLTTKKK
The description is as above.

Assay [6] deals with T6, human GM-CSF overlapping 12-mer peptide, SEQ ID NO:35 (human).
T6 construct: also called peptide #6
T6 peptide: ARRLLNLSRDTA-{cellulose membrane}
As to the kind of experiment: SPOT peptide membrane probed with G9, HRP goat anti-human IgG, ECL.

Assay [7] has as its target T7, human GM-CSF overlapping 12-mer peptide, SEQ ID NO:38 (human).
T7 construct: also called peptide #15
T7 peptide: RGSLTKLKGPLT-{cellulose membrane}
Described as above.

Assay [8] has as its target T8, human GM-CSF overlapping 12-mer peptide, SEQ ID NO:36 (human).
T8 construct: also called peptide #13
T8 peptide: TRLELYKQGLRG-{cellulose membrane}
Described as above.

Assay [9] has as its target T9, human GM-CSF overlapping 12-mer peptide, SEQ ID NO:37 (human).
T9 construct: also called peptide #14
T9 peptide: YKQGLRGSLTKL-{cellulose membrane}
Described as above.

The target of assay [10] is T1, human granulocyte-macrophage colony …. The assay can be described thus: BIACORE.
In assay [11] the target is T3, HEL. As to the kind of experiment: antigen-specific ELISA (subsequent study, data not shown).
The target in assay [12] is T4, human mesothelin. Described as above.
Assay [13] deals with T5, SEB. The assay is described as above.
For the next assay, the target named is T10, BSA (bovine, UniProt P02769 25-607).
T10 construct: also called bovine serum albumin
T10 sequence (P02769 25-607 limits assumed): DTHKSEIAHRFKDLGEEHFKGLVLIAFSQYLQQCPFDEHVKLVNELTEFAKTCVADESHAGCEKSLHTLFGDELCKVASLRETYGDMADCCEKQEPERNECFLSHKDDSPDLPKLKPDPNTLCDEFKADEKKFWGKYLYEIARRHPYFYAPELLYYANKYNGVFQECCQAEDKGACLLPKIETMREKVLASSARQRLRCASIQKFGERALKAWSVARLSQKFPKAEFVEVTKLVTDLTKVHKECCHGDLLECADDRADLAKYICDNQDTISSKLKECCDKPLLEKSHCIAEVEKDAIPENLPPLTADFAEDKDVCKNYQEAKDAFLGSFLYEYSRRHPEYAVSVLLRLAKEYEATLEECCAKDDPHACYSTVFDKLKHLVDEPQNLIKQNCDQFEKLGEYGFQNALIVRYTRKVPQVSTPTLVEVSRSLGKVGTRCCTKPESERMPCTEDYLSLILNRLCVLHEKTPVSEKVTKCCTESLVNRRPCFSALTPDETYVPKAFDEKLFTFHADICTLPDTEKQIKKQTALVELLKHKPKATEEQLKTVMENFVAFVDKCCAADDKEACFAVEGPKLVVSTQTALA
As to the kind of experiment: antigen panel ELISA, antigen coated on the plate, O.D. 450.

In a further assay the target is T11, h IL-3 (human, UniProt P08700 20-152).
T11 sequence (looked up): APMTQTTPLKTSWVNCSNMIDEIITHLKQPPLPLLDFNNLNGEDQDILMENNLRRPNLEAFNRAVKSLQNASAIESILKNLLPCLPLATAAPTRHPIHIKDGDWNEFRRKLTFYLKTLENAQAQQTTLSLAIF
The assay is described as above.

The target of the next assay is hIL-13 (human, UniProt P35225 35-146, limits assumed). Described as above.
hIL-13, sequence (P35225 35-146 limits assumed): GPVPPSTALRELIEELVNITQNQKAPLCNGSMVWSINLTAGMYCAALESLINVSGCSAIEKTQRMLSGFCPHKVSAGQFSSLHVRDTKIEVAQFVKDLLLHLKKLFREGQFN
Another assay has as its target T12, murine GM-CSF (murine, UniProt P01587 18-141).
T12 construct: also called mGM-CSF
T12 sequence (looked up): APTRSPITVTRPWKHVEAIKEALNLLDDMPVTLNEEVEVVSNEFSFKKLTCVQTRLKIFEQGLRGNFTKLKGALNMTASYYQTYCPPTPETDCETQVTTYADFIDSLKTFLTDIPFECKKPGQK
The assay is described as above.

Another assay concerns the target IL-6 (Homo sapiens (Human), UniProt P05231 30-212). The assay is described as above.
In a further assay the target is T13, h IL-4 (human, UniProt P05112 25-153).
T13 sequence (looked up): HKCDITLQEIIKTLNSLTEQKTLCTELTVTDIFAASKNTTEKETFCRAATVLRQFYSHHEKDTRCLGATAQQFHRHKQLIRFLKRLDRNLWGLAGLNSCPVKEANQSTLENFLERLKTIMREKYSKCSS
The description is as above.

The target of a further assay is T14, hIL-1a (human, UniProt P01583 113-271).
T14 sequence (looked up): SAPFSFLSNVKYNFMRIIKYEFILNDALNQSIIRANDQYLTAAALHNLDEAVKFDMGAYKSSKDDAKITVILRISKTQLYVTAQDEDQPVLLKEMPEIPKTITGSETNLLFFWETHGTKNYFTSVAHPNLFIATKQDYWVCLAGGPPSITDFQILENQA
The assay is described as above.

The target of a further assay is T15, h IL-5 (human, UniProt P05113 20-134).
T15 sequence (looked up): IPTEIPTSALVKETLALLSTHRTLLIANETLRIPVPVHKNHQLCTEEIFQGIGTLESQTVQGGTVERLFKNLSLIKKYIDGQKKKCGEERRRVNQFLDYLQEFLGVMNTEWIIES
The assay is described as above.

In another assay the target is h IL-2 (human, UniProt P60568 21-153). The assay is described as above.
h IL-2, sequence (P60568 21-153 limits assumed): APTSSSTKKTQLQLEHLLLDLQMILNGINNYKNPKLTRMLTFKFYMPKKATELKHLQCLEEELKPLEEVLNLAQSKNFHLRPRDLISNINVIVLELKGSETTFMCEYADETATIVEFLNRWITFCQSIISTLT

T1 sequence (P04141 18-144): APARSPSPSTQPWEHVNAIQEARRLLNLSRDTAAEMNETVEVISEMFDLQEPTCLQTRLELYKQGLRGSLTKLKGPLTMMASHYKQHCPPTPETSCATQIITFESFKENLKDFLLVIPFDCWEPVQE

B1: anti-GM-CSF human IgG1 monoclonal antibody G9 (antibody, V domains shown)
VH: EVQLVESGGGLVQPGGSLRLSCAASGFTFSRHWMHWLRQVPGKGPVWVSRINGAGTSITYADSVRGRFTISRDNANNTLFLQMNSLRADDTALYFCARANSVWFRGLFDYWGQGTPVTVSS
VL: EIVLTQSPVTLSVSPGERVTLSCRASQSVSTNLAWYQQKLGQGPRLLIYGASTRATDIPARFSGSGSETEFTLTISSLQSEDFAVYYCQQYDKWPDTFGQGTKLEIKR
notes: Fully human IgG1 kappa made by a hybridoma from B cells of a PAP patient; also called 10G9; 10G9.1
Usually koff stands for a measure of how fast the partners let go of each other. The term kon denotes the rate constant with which the complex forms. Lower therefore signals slower complex formation. Regarding B1, the Kd is 0.014 nM in assay [1]; 0.0109 nM and 0.011 nM to 0.017 nM (2×) in assay [10]. Also, the binding result in [2] was “binds”; in the assay with HEL [3], “no binding”; in the assay with human mesothelin [4], “no binding”; with SEB [5] it was “no binding”; in assay [6], “binds”; in assay [7], “binds”. Also, the binding result in assay [8] and in [9] was “binds” in each case. The same molecule came in with a koff in assay [10] of 9.27e-05 s⁻¹. The kon in assay [10] stood at 8.47e+06 M⁻¹ s⁻¹.

B2: anti-GM-CSF human IgG1 monoclonal antibody E10 (antibody, V domains shown)
VH: QVQLEESGGGVVQPGRSLRLSCAASGFTFTNYGMHWVRQAPGKGLEWLALISYDGNRQYYADSVKGRFTVSRDNPNNTLHLEMKSLRAEDSAIYYCARGAGVLLWFGDLSWFDPWGQGTLVTVSS
VL: DIQMTQSPSNLSASVGDRVTITCRASQNINTWLAWYQHKPGKPPKLRIYQASTLESGVPSRFSGSGSGTIFTLTISSLQPDDFGTYYCQQNNSYPYTFGQGTKLEINR
notes: Fully human IgG1 kappa made by a hybridoma from B cells of a PAP patient; also called 4E10; E10.20
For B2, in assay [10], the Kd was 0.87 nM and ~0.87 nM. Besides, in assay [10], the koff amounted to 2.16e-05 s⁻¹. In [10], this molecule came in with a kon of 24700 M⁻¹ s⁻¹. Also, the binding result with HEL [11], with human mesothelin [12], with SEB [13], in the assay with BSA, in the assay with h IL-3 and with hIL-13 was “no binding” each time. The binding result with murine GM-CSF, in the assay with IL-6, in the assay with h IL-4, in the assay with hIL-1a, with h IL-5 and in the assay with h IL-2 was “no binding” each time.
